Where “and” joins values, the source holds several entries; their conditions need not be identical. Equal entries are not always repeated.
T1: human GPVI on the platelet surface (human, UniProt Q9HCN6 21-339)
T1 sequence (looked up): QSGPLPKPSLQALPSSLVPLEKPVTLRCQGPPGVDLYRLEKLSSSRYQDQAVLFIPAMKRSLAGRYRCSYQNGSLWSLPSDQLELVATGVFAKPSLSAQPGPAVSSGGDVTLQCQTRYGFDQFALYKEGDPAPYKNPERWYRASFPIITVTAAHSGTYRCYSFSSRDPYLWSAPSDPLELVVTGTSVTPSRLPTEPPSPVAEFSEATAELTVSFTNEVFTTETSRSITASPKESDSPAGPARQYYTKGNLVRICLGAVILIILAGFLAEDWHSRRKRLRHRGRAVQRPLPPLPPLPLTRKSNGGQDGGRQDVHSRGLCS


Target: T1, human GPVI on the platelet surface
Assay: cell-based or functional assay

Binder	IC50, inhibition of collagen induced platelet aggregation (human platelet rich plasma)
humanized anti-GPVI Fab VL1 with VH2 (Fab, V domains shown) VH: QVQLQESGPGLVAPSQSLSITCTVSGFSLTGYGVNWVRQPPSRGLEWLGMIWGDGSTDYQSTLKSRLSISKDNSKSQVFLKMNSLTTDDTARYYCARDLPMDYWGQGTSVTVSS VL: DIQMTQSPSSLSASVGGRVTITCKASQDINKYIAWYQHKPGKGPSLLIHYTSTLQPGVPSRFSGSGSGRDYSFSISNLQPEDIATYYCLQYANLLTFGGGTKLEIKR	2.3 µg/mL and 2 µg/mL and 1.1 µg/mL
humanized anti-GPVI Fab VL1 with VH3 (Fab, V domains shown) VH: EVQLLESGPGLVAPSGSLSITCTVSGFSLTGYGVNWVRQPPGKGLEWLGMIWGDGSTDYQSTLKSRLSISKDNSKSQVFLKMNSLRTDDTARYYCARDLPMDYWGLGTSVTVSS VL: DIQMTQSPSSLSASVGGRVTITCKASQDINKYIAWYQHKPGKGPSLLIHYTSTLQPGVPSRFSGSGSGRDYSFSISNLQPEDIATYYCLQYANLLTFGGGTKLEIKR	1.5 µg/mL and 1.7 µg/mL
humanized anti-GPVI Fab VL1 with VH1 (Fab, V domains shown) VH: QVQLQESGPGLVAPSQSLSITCTVSGFSLTGYGVNWVRQPPSRGLEWLGMIWGDGSTDYQSTLKSRLSISKDTSKSQVFLKMNSLTTDDTARYYCARDLPMDYWGQGTSVTVSS VL: DIQMTQSPSSLSASVGGRVTITCKASQDINKYIAWYQHKPGKGPSLLIHYTSTLQPGVPSRFSGSGSGRDYSFSISNLQPEDIATYYCLQYANLLTFGGGTKLEIKR	1.5 µg/mL and 2.3 µg/mL

More lines, now with the values ahead:

IC50, inhibition of collagen induced platelet aggregation (human platelet rich plasma)	Binder
1.9 µg/mL and 0.9 µg/mL and 2.1 µg/mL	humanized anti-GPVI Fab VL3 with VH2 (Fab, V domains shown) VH: QVQLQESGPGLVAPSQSLSITCTVSGFSLTGYGVNWVRQPPSRGLEWLGMIWGDGSTDYQSTLKSRLSISKDNSKSQVFLKMNSLTTDDTARYYCARDLPMDYWGQGTSVTVSS VL: DIQMTQSPSSLSASVGGRVTITCKASQDINKYIAWYQHKPGKGPSLLIHYTSTLQPGVPSRFSGSGSGRDYSFSISNLQPEDIATYYCLQYALLLTFGGGTKLEIKR
1.6 µg/mL and 1.8 µg/mL and 1.2 µg/mL	humanized anti-GPVI Fab VL1 with VH4 (Fab, V domains shown) VH: QVQLQESGPGLVAPSQSLSITCTVSGFSLTYYGVNWVRQPPSRGLEWLGMIWGDGSTDYQSTLKSRLSISKDNSKSQVFLKMNSLTTDDTARYYCARDLPMDYWGQGTSVTVSS VL: DIQMTQSPSSLSASVGGRVTITCKASQDINKYIAWYQHKPGKGPSLLIHYTSTLQPGVPSRFSGSGSGRDYSFSISNLQPEDIATYYCLQYANLLTFGGGTKLEIKR
1 µg/mL and 2.3 µg/mL and 2 µg/mL	humanized anti-GPVI Fab VL3 with VH4 (Fab, V domains shown) VH: QVQLQESGPGLVAPSQSLSITCTVSGFSLTYYGVNWVRQPPSRGLEWLGMIWGDGSTDYQSTLKSRLSISKDNSKSQVFLKMNSLTTDDTARYYCARDLPMDYWGQGTSVTVSS VL: DIQMTQSPSSLSASVGGRVTITCKASQDINKYIAWYQHKPGKGPSLLIHYTSTLQPGVPSRFSGSGSGRDYSFSISNLQPEDIATYYCLQYALLLTFGGGTKLEIKR
1.4 µg/mL and 2.4 µg/mL and 2.3 µg/mL	humanized anti-GPVI Fab VL2 with VH2 (Fab, V domains shown) VH: QVQLQESGPGLVAPSQSLSITCTVSGFSLTGYGVNWVRQPPSRGLEWLGMIWGDGSTDYQSTLKSRLSISKDNSKSQVFLKMNSLTTDDTARYYCARDLPMDYWGQGTSVTVSS VL: DIQMTQSPSSLSASVGGRVTITCKASQDINKYIAWYQHKPGKGPSLLIHYTSTLQPGVPSRFSGSGSGRDYSFSISNLQPEDIATYYCLQYAHLLTFGGGTKLEIKR
1.9 µg/mL and 2.3 µg/mL and 1.2 µg/mL	humanized anti-GPVI Fab VL1 with VH5 (Fab, V domains shown) VH: QVQLQESGPGLVAPSQSLSITCTVSGFSLTGYGVNWVRQPPSRGLEWLGMIWGDGSTDYQSTLKSRLSISKDNSKSQVFLKMNSLTTDDTARYYCARDLPMDEWGQGTSVTVSS VL: DIQMTQSPSSLSASVGGRVTITCKASQDINKYIAWYQHKPGKGPSLLIHYTSTLQPGVPSRFSGSGSGRDYSFSISNLQPEDIATYYCLQYANLLTFGGGTKLEIKR
